Data as given in paper doi:10.1101/2021.11.17.468963.

Molecular target: human glyceraldehyde 3-phosphate dehydrogenase (GAPDH) (human) (UniProt P04406)
Experiment: cryo-EM structure

Chain of human glyceraldehyde 3-phosphate dehydrogenase (GAPDH), P04406 1-335 (enzyme; other documents disagree on this pair) (P04406 whole entry): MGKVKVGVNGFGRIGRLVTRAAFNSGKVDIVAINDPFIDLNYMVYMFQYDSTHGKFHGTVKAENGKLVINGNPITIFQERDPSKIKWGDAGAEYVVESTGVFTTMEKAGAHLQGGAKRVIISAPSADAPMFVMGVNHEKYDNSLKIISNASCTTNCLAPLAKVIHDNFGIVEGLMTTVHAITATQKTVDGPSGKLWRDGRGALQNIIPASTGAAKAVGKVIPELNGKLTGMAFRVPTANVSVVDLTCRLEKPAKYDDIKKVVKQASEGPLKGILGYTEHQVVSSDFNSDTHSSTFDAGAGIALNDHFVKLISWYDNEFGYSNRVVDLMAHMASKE

## human glyceraldehyde 3-phosphate dehydrogenase (GAPDH), P04406 1-335 (enzyme; other documents disagree on this pair)
  stoichiometry N: 4
